For 1 molecule, Kd results are on record in US20160282364A1 (published 2016).

One assay has as its target 31. Briefly: fluorescence polarization; without insulin.
The target in a further assay is 31 + insulin. Briefly: fluorescence polarization; Kapp, with 2.5 uM insulin. In general terms: In fluorescence polarisation assays a small probe gives low polarisation when free and higher when bound to something large.

B1: IDE (enzyme)
chain: MNNPAIKRIGNHITKSPEDKREYRGLELANGIKVLLISDPTTDKSSAALDVHIGSLSDPPNIAGLSHFLQHMLFLGTKKYPKENEYSQFLSEHAGSSNAFTSGEHTNYYFDVSHEHLEGALDRFAQFFLSPLFDESAKDREVNAVDSEHEKNVMNDAWRLFQLEKATGNPKHPFSKFGTGNKYTLETRPNQEGIDVRQELLKFHSAYYSSNLMAVVVLGRESLDDLTNLVVKLFSEVENKNVPLPEFPEHPFQEEHLKQLYKIVPIKDIRNLYVTFPIPDLQKYYKSNPGHYLGHLIGHEGPGSLLSELKSKGWVNTLVGGQKEGARGFMFFIINVDLTEEGLLHVEDIILHMFQYIQKLRAEGPQEWVFQELKDLNAVAFRFKDKERPRGYTSKIAGILHYYPLEEVLTAEYLLEEFRPDLIEMVLDKLRPENVRVAIVSKSFEGKTDRTEEWYGTQYKQEAIPDEVIKKWQNADLNGKFKLPTKNEFIPTNFEILPLEKEATPYPALIKDTAMSKLWFKQDDKFFLPKANLNFEFFSPFAYVDPLHSNMAYLYLELLKDSLNEYAYAAELAGLSYDLQNTIYGMYLSVKGYNDKQPILLKKIIEKMATFEIDEKRFEIIKEAYMRSLNNFRAEQPHQHAMYYLRLLMTEVAWTKDELKEALDDVTLPRLKAFIPQLLSRLHIEALLHGNITKQAALGIMQMVEDTLIEHAHTKPLLPSQLVRYREVQLPDRGWFVYQQRNEVHNNSGIEIYYQTDMQSTSENMFLELFAQIISEPAFNTLRTKEQLGYIVFSGPRRANGIQGLRFIIQSEKPPHYLESRVEAFLITMEKSIEDMTEEAFQKHIQALAIRRLDKPKKLSAESAKYWGEIISQQYNFDRDNTEVAYLKTLTKEDIIKFYKEMLAVDAPRRHKVSVHVLAREMDSNPVVGEFPAQNDINLSQAPALPQPEVIQNMTEFKRGLPLFPLVKPHINFMAAKL
In general, Kd refers to the equilibrium constant for the complex coming apart. B1: the Kd with 31 worked out at 42 nM; with 31 + insulin, 280 nM.
